Results as given in doi:10.1101/144295, “Human PRDM9 can bind and activate promoters, and other zinc-finger proteins associate with reduced recombination in cis” (bioRxiv, 2017).

Molecular target: the molecule itself
Assay: co-IP; competitive co-IP: HEK293T transfected with equimolar DNA of three constructs (one bait with one tag, Human and Chimp prey with the other tag); IP against the bait's tag, western blot against the prey's tag; replicated with reversed tags

B1: full-length human PRDM9 (B allele), C-terminally tagged with HA or V5 (natural protein)
chain: not shown
notes: 218 synonymous base changes in the zinc finger exon; An HA and a V5 version were made; The C-terminal cassette is linker-TwinStrep-linker-HA/V5-linker-P2A followed by YFP; vector pLENTI CMV/TO Puro DEST (Addgene plasmid # 17293); YFP probably separates at the P2A site (surmised); also called Human-HA; Human-V5; source: HEK293T, transfected (FuGENE-HD), in lysate; not shown: HA or V5, C-terminal, …
In the case of B1, the “fold more efficiently co-precipitated than the Chimp prey (Human bait)” value is reported as greater than 2 fold.
